Where no end group is shown, it is not given here.
B1: Phage-3223 (peptide)
peptide: PQWMCKPEWMCNGF
notes: not shown: pIII filament protein of the bacteriophage
B2: Phage-3222 (peptide)
peptide: MELKCVPKWMCAGF
modifications: cysteine pairing not given here; also: fused to phage pIII, sequence not given here
notes: as for B1
B3: Phage-3224 (peptide)
peptide: ITALCKPAWMCDGF
notes: as for B1
B4: Phage-3225 (peptide)
peptide: GEVLCRPIWMCNGF
notes: as for B1
B5: Phage-3236 (peptide)
peptide: PLPMCVPAWMCAGF
modifications: cysteine pairing not given here; also: fused to phage pIII, fusion site not given here
notes: also called Peptide-180 library clone
B6: Phage-3237 (peptide)
peptide: EYHKCIPEWMCAGF
modifications: cysteine pairing not given here; also: fused to phage pIII, fusion site not given here
notes: as for B5
B7: Phage-3233 (peptide)
peptide: PYAMCEPAWMCSGF
modifications: cysteine pairing not given here; also: fused to phage pIII, fusion site not given here
notes: as for B5

biological target: T1, PSMA Fab; experiment: phage ELISA, clonal phage on biotinylated PSMA Fab captured on neutravidin plate, anti-M13 HRP detection;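 also: crude clonal phage supernatants added to wells preincubated with PSMA antigen in blocking buffer or with blocking buffer only, giving a competition and a no-competitor control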
T1 construct: In the phage ELISA the PSMA Fab was biotinylated and captured on neutravidin coated plates; also called anti-PSMA Fab; 006 PSMA Fab
Experimental: (§1) Clonal phage were harvested as crude supernatants and screened via standard ELISAs. […] Prior to the addition of clonal phage. wells were incubated with blocking buffer and PSMA antigen or blocking buffer alone. Without washing or aspirating, clonal phage supernatants were then added to the wells and incubated for a short time. Wells were then washed followed by detection of bound phage using a horse radish conjugated anti-M13 antibody.

Binder	Phage binding ELISA signal, Anti-PSMA Fab
IELMCRPLWMCMGF [Phage-3398]	1.8
ASVLCVPAWMCSGF [Phage-3395]	1.8
FGIYCVPEWMCTGL [Phage-3397]	1.8
TQALCKPAWMCKGF [Phage-3399]	1.8
QFLVCKPSWMCNGF [Phage-3402]	1.8
TEILCVPEWMCIGL [Phage-3392]	1.8
GFPWCEPQWMCIGF [Phage-3396]	1.8
ITVICKPAWMCEFL [Phage-3394]	1.8
ENHYCRPAWMCNGF [Phage-3393]	1.8
AALRCVPTWMCEGF [Phage-3404]	1.79
VERYCVPQWMCDGF [Phage-3403]	1.8
FERLCIPEWMCSAF [Phage-3400]	1.8
FRDYCVPPWMCVGM [Phage-3401]	1.8

biological target: T2, PSMA Fab; experiment: clonal phage ELISA on biotinylated PSMA Fab captured on neutravidin plates, anti-M13 HRP detection;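 also: crude clonal phage supernatants tested, before phage were added, wells were pretreated with PSMA antigen in blocking buffer or with blocking buffer only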
T2 construct: In the phage ELISA the PSMA Fab was biotinylated and captured on neutravidin coated plates; also called Anti-PSMA Fab; 006 PSMA Fab
Experimental: as §1

Binder	Phage binding ELISA signal, Anti-PSMA Fab
TEVMCRPLWMCAGF [Phage-3295]	1.89
GWPVCVPPWMCDGF [Phage-3303]	1.87
ETFKCVPEWMCTGL [Phage-3298]	1.88
MLLQCKPSWMCAGF [Phage-3302]	1.87
VAVMCRPAWMCYGF [Phage-3297]	1.88
VDRFCEPIWMCIGF [Phage-3306]	1.87
VESMCKPAWMCIGF [Phage-3300]	1.88
VVIQCQPAWMCDGF [Phage-3296]	1.88
EHYACKPEWMCAGF (cysteine pairing not given here; also: fused to pIII of bacteriophage) [Phage-3304]	1.87
EMFRCTPEWMCAGL (cysteine pairing not given here; also: fused to pIII of bacteriophage) [Phage-3307]	1.87
HDAMCKPAWMCAGF [Phage-3299]	1.88
HSALCIPSWMCQGF [Phage-3305]	1.87
MPPVCIPRWMCEGF [Phage-3301]	1.88

biological target: T3, PSMA Fab (biotinylated (site not stated)); experiment: clonal phage ELISA on biotinylated PSMA Fab captured on neutravidin; anti-M13 HRP detection
T3 construct: Biotinylated PSMA Fab captured on neutravidin coated plates in the phage ELISA; also called Anti-PSMA Fab; 006 PSMA Fab

Binder	phage binding ELISA signal
B1	1.96
B2	1.96
B3	1.96
B4	1.95

biological target: T4, PSMA Fab (biotinylated (site not stated)); experiment: clonal phage ELISA; biotinylated PSMA Fab on neutravidin plate, blocking buffer alone; anti-M13 HRP detection;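 also: crude clonal phage supernatants added without washing to wells pretreated with blocking buffer with or without PSMA antigen, short incubation, then washed before detecting bound phage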
T4 construct: The panning ELISA names only 'biotinylated PSMA Fab' captured on neutravidin coated plates; also called Anti-PSMA Fab; 006 PSMA Fab

Binder	Phage binding ELISA signal, Anti-PSMA Fab
VTAYCVPPWMCAVF (also called Peptide-180 library clone) [Phage-3231]	1.95
LGIYCVPEWMCQGF (also called Peptide-180 library clone) [Phage-3230]	1.95
LTVLCEPAWMCVGF (also called Peptide-180 library clone) [Phage-3226]	1.95
B5	1.95
DGIRCVPNWMCVGF (also called Peptide-180 library clone) [Phage-3234]	1.95
PIVKCSPAWMCSGF (also called Peptide-180 library clone) [Phage-3227]	1.95
IVKACKPEWMCVGF (also called Peptide-180 library clone) [Phage-3232]	1.95
B6	1.94
VERLCMPEWMCLGF (also called Peptide-180 library clone) [Phage-3235]	1.95
VGHVCLPPWMCTGF (also called Peptide-180 library clone) [Phage-3228]	1.95
B7	1.95
WEHRCTPEWMCTGF (also called Peptide-180 library clone) [Phage-3238]	1.94
ITPLCSPAWMCQGL (also called Peptide-180 library clone) [Phage-3229]	1.95

biological target: T1, PSMA Fab; experiment: phage ELISA, clonal phage on captured PSMA Fab pre-incubated with PSMA antigen as competitor, anti-M13 HRP detection
Experimental: as §1

Binder	Phage binding ELISA signal, Anti-PSMA Fab in presence of PSMA
IELMCRPLWMCMGF [Phage-3398]	0.0966
ASVLCVPAWMCSGF [Phage-3395]	0.0808
FGIYCVPEWMCTGL [Phage-3397]	0.0891
TQALCKPAWMCKGF [Phage-3399]	0.0703
QFLVCKPSWMCNGF [Phage-3402]	0.0882
TEILCVPEWMCIGL [Phage-3392]	0.0705
GFPWCEPQWMCIGF [Phage-3396]	0.114
ITVICKPAWMCEFL [Phage-3394]	0.0613
ENHYCRPAWMCNGF [Phage-3393]	0.106
AALRCVPTWMCEGF [Phage-3404]	0.0793
VERYCVPQWMCDGF [Phage-3403]	0.117
FERLCIPEWMCSAF [Phage-3400]	0.102
FRDYCVPPWMCVGM [Phage-3401]	0.0791

biological target: T4, PSMA Fab; experiment: clonal phage ELISA; biotinylated PSMA Fab on neutravidin plate, wells pre-incubated with PSMA antigen as competitor; anti-M13 HRP detection;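 also: crude clonal phage supernatants added to antigen-treated wells without a wash, incubated briefly, then bound phage read out via horse radish–conjugated anti-M13 antibody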
Experimental: as §1

Binder	Phage binding ELISA signal, Anti-PSMA Fab with PSMA antigen
VTAYCVPPWMCAVF (also called Peptide-180 library clone) [Phage-3231]	0.102
LGIYCVPEWMCQGF (also called Peptide-180 library clone) [Phage-3230]	0.0818
LTVLCEPAWMCVGF (also called Peptide-180 library clone) [Phage-3226]	0.0827
B5	0.133
DGIRCVPNWMCVGF (also called Peptide-180 library clone) [Phage-3234]	0.0969
PIVKCSPAWMCSGF (also called Peptide-180 library clone) [Phage-3227]	0.0757
IVKACKPEWMCVGF (also called Peptide-180 library clone) [Phage-3232]	0.0754
B6	0.0924
VERLCMPEWMCLGF (also called Peptide-180 library clone) [Phage-3235]	0.126
VGHVCLPPWMCTGF (also called Peptide-180 library clone) [Phage-3228]	0.0697
B7	0.0697
WEHRCTPEWMCTGF (also called Peptide-180 library clone) [Phage-3238]	0.0937
ITPLCSPAWMCQGL (also called Peptide-180 library clone) [Phage-3229]	0.055

biological target: T3, PSMA Fab; experiment: clonal phage ELISA on plate-bound PSMA Fab pre-incubated with PSMA antigen as competitor
Experimental: as §1

Binder	phage binding ELISA signal
B1	0.0807
B2	0.0684
B3	0.109
B4	0.123

— patent US20260242478A1 (published 2026)
